This passage reports peptide exchange yield results from patent publication US20170096461A1 (IMMATICS BIOTECHNOLOGIES, published 2017).

The test has as its target T1, HLA-A*02:01 (peptide-receptive MHC class I monomer after UV-ligand exchange) (human).
T1 construct: Monomers made with a UV-sensitive peptide that is cleaved by UV and exchanged for the test peptide; captured on streptavidin plates; also called MHC molecules
The test is described as follows: UV-ligand exchange + anti-b2m ELISA; exchange yield grade: + >=10%, ++ >=20%, +++ >=50, ++++ >=75%. An excerpt: Candidate peptides for T cell based therapies according to the present invention were further tested for their MHC binding capacity (affinity). The individual peptide-MHC complexes were produced by UV-ligand exchange, where a UV-sensitive peptide is cleaved upon UV-irradiation, and exchanged with the peptide of interest as analyzed. Only peptide candidates that can effectively bind and stabilize the peptide-receptive MHC molecules prevent dissociation of the MHC complexes. To determine the yield of the exchange reaction, an ELISA was performed based on the detection of the light chain (β2m) of stabilized MHC complexes. The assay was performed as generally described in Rodenko et al. (Rodenko et al., 2006).
96 well MAXISorp plates (NUNC) were coated over night with 2 ug/ml streptavidin in PBS at room temperature, washed 4× and blocked for 1 h at 37° C. in 2% BSA containing blocking buffer. Refolded HLA-A*02:01/MLA-001 monomers served as standards, covering the range of 15-500 ng/ml. Peptide-MHC monomers of the UV-exchange reaction were diluted 100 fold in blocking buffer. Samples were incubated for 1 h at 37° C., washed four times, incubated with 2 ug/ml HRP conjugated anti-β2m for 1 h at 37° C., washed again and detected with TMB solution that is stopped with […]. Absorption was measured at 450 nm. Candidate peptides that show a high exchange yield (preferably higher than 50%, most preferred higher than 75%) are generally preferred for a generation and production of antibodies or fragments thereof, and/or T cell receptors or fragments thereof, as they show sufficient avidity to the MHC molecules and prevent dissociation of the MHC complexes.
(An ELISA detects its analyte on a solid surface through an enzyme-linked reagent.)

On to ILDEAGVKYFL [peptide ILDEAGVKYFL (SEQ ID NO: 51)], for which the peptide exchange yield fell in the range of 50 to 75%. To TLHRETFYL [peptide TLHRETFYL (SEQ ID NO: 88)] belongs no less than 75%. On to VADPETRTV [peptide VADPETRTV (SEQ ID NO: 100)], for which the peptide exchange yield is 10 to 20%. With ALRETVVEV [peptide ALRETVVEV (SEQ ID NO: 93)], the peptide exchange yield was in the range of 50 to 75%. In the case of FLFPVYPLI [peptide FLFPVYPLI (SEQ ID NO: 68)], the peptide exchange yield was 50 to 75%. As to AMNSQILEV [peptide AMNSQILEV (SEQ ID NO: 101)], the peptide exchange yield was in the range of 50 to 75%.

On to VLLSGLTEV [peptide VLLSGLTEV (SEQ ID NO: 59)], for which the peptide exchange yield is no less than 75%. For the molecule TLLWKLVEV [peptide TLLWKLVEV (SEQ ID NO: 70)], the peptide exchange yield was 20 to 50%. As for NLLKLIAEV [peptide NLLKLIAEV (SEQ ID NO: 96)], the peptide exchange yield is no less than 75%.

As for VLIGDVLVAV [peptide VLIGDVLVAV (SEQ ID NO: 57)], the peptide exchange yield is no less than 75%.

With SLQSLIISV [peptide SLQSLIISV (SEQ ID NO: 5)], the peptide exchange yield was no less than 75%. Next, SIMDYVVFV [peptide SIMDYVVFV (SEQ ID NO: 6)]: no less than 75%; FIFEQVQNV [peptide FIFEQVQNV (SEQ ID NO: 71)]: 50 to 75%; KLQDGVHII [peptide KLQDGVHII (SEQ ID NO: 91)]: 50 to 75%. Next, ALSSVIKEL [peptide ALSSVIKEL (SEQ ID NO: 82)]: 50 to 75%; VLLNINGIDL [peptide VLLNINGIDL (SEQ ID NO: 58)]: no less than 75%. In the case of LLIADNPQL [peptide LLIADNPQL (SEQ ID NO: 55)], the peptide exchange yield is no less than 75%. Turning to ALFPVAEDISL [peptide ALFPVAEDISL (SEQ ID NO: 94)], the peptide exchange yield lay within 50 to 75%. For the molecule LLQNNLPAV [peptide LLQNNLPAV (SEQ ID NO: 87)], the peptide exchange yield is no less than 75%. Consider KVIDYVPGI [peptide KVIDYVPGI (SEQ ID NO: 86)], for which the peptide exchange yield fell in the range of 50 to 75%.

On to ILMDPSPEYA [peptide ILMDPSPEYA (SEQ ID NO: 80)], for which the peptide exchange yield lay within 50 to 75%. For the molecule KLFAIPILL [peptide KLFAIPILL (SEQ ID NO: 11)], the peptide exchange yield fell in the range of 50 to 75%.

Take FLDSLSPSV [peptide FLDSLSPSV (SEQ ID NO: 74)]: the peptide exchange yield is 50 to 75%. For YLQDYTDRV [peptide YLQDYTDRV (SEQ ID NO: 92)], the peptide exchange yield is 50 to 75%. For the molecule SLLEYQMLV [peptide SLLEYQMLV (SEQ ID NO: 103)], the peptide exchange yield was no less than 75%.

As to KMFENEFLL [peptide KMFENEFLL (SEQ ID NO: 84)], the peptide exchange yield is 50 to 75%.

On to VMYDLITEL [peptide VMYDLITEL (SEQ ID NO: 65)], for which the peptide exchange yield is 50 to 75%. As for FAYDGKDYLTL [peptide FAYDGKDYLTL (SEQ ID NO: 85)], the peptide exchange yield was 50 to 75%. To VVSGATETL [peptide VVSGATETL (SEQ ID NO: 60)] belongs no less than 75%; to AIIDGKIFCV [peptide AIIDGKIFCV (SEQ ID NO: 77)], 50 to 75%; to TLIQFTVKL [peptide TLIQFTVKL (SEQ ID NO: 104)], 50 to 75%.

With FLLSQIVAL [peptide FLLSQIVAL (SEQ ID NO: 50)], the peptide exchange yield was in the range of 50 to 75%. Regarding KLLEIDIDGV [peptide KLLEIDIDGV (SEQ ID NO: 83)], the peptide exchange yield lay in the range of 50 to 75%. Take HLFDIILTSV [peptide HLFDIILTSV (SEQ ID NO: 54)]: the peptide exchange yield was no less than 75%. For the molecule SLSSYTPDV [peptide SLSSYTPDV (SEQ ID NO: 73)], the peptide exchange yield lay within 50 to 75%. Consider ALYSKGILL [peptide ALYSKGILL (SEQ ID NO: 95)], for which the peptide exchange yield was no less than 75%.

YLNLISTSV [peptide YLNLISTSV (SEQ ID NO: 66)]: the peptide exchange yield lay in the range of 50 to 75%. To SLFSQMGSQYEL [peptide SLFSQMGSQYEL (SEQ ID NO: 56)] belongs 50 to 75%; to ALFARPDLLLL [peptide ALFARPDLLLL (SEQ ID NO: 102)], no less than 75%; to SLDLHVPSL [peptide SLDLHVPSL (SEQ ID NO: 75)], 50 to 75%.

As for TLVDNISTMAL [peptide TLVDNISTMAL (SEQ ID NO: 90)], the peptide exchange yield fell in the range of 50 to 75%.

In the case of KAIGSLKEV [peptide KAIGSLKEV (SEQ ID NO: 72)], the peptide exchange yield is 50 to 75%. To LLAEIGAVTLV [peptide LLAEIGAVTLV (SEQ ID NO: 81)] belongs 50 to 75%; to KLFDRSVDL [peptide KLFDRSVDL (SEQ ID NO: 69)], 20 to 50%; to MLYDIVPVV [peptide MLYDIVPVV (SEQ ID NO: 67)], 50 to 75%. QMLEAIKALEV [peptide QMLEAIKALEV (SEQ ID NO: 99)]: the peptide exchange yield is no less than 75%. Next, ALLDGTVFEI [peptide ALLDGTVFEI (SEQ ID NO: 97)]: 50 to 75%. Consider YQAPYFLTV [peptide YQAPYFLTV (SEQ ID NO: 61)], for which the peptide exchange yield lay within 50 to 75%. To ALVDHLNVGV [peptide ALVDHLNVGV (SEQ ID NO: 98)] belongs 50 to 75%. AAAPGEALHTA [peptide AAAPGEALHTA (SEQ ID NO: 9)]: the peptide exchange yield was 20 to 50%. Consider VMLPIGAVVMV [peptide VMLPIGAVVMV (SEQ ID NO: 62)], for which the peptide exchange yield is 50 to 75%. As for LLMSTENEL [peptide LLMSTENEL (SEQ ID NO: 63)], the peptide exchange yield was 50 to 75%. Turning to VLFHQLQEI [peptide VLFHQLQEI (SEQ ID NO: 64)], the peptide exchange yield is 50 to 75%. With IQHDLIFSL [peptide IQHDLIFSL (SEQ ID NO: 89)], the peptide exchange yield is 50 to 75%. Take LLSEEHITL [peptide LLSEEHITL (SEQ ID NO: 53)]: the peptide exchange yield is no less than 75%. With ILASFMLTGV [peptide ILASFMLTGV (SEQ ID NO: 52)], the peptide exchange yield is no less than 75%. As for GLLGDIAIHL [peptide GLLGDIAIHL (SEQ ID NO: 7)], the peptide exchange yield was in the range of 50 to 75%. Turning to RLLEPAQVQQL [peptide RLLEPAQVQQL (SEQ ID NO: 79)], the peptide exchange yield is 50 to 75%.

In the case of RIIDPEDLKALL [peptide RIIDPEDLKALL (SEQ ID NO: 78)], the peptide exchange yield is no less than 75%.
